Reference: publication PMC5474359

Molecular target: T1, CD-86, P42081
T1 chain: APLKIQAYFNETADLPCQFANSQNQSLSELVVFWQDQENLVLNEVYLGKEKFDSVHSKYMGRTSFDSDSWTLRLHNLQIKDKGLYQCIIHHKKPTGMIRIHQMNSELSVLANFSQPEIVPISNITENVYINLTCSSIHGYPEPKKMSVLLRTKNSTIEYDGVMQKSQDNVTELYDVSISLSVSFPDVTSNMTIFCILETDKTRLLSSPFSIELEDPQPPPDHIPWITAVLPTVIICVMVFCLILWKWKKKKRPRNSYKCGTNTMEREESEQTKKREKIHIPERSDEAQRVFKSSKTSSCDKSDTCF
Assay: fluorescence correlation spectroscopy with photon counting histogram
Conditions: remark: other sources report otherwise

PCH molecular brightness: 9360 CPSM
B1: CD-86, P42081 24-329 (receptor)
chain: APLKIQAYFNETADLPCQFANSQNQSLSELVVFWQDQENLVLNEVYLGKEKFDSVHSKYMGRTSFDSDSWTLRLHNLQIKDKGLYQCIIHHKKPTGMIRIHQMNSELSVLANFSQPEIVPISNITENVYINLTCSSIHGYPEPKKMSVLLRTKNSTIEYDGVMQKSQDNVTELYDVSISLSVSFPDVTSNMTIFCILETDKTRLLSSPFSIELEDPQPPPDHIPWITAVLPTVIICVMVFCLILWKWKKKKRPRNSYKCGTNTMEREESEQTKKREKIHIPERSDEAQRVFKSSKTSSCDKSDTCF
